What was measured:
[1] = target: T1, human B-cell associated protein-37 (human BAP-37) (human, UniProt O35129 1-299 (mouse entry), limits assumed); assay: cell-based or functional assay
[2] = target: T1, human B-cell associated protein-37 …; assay: cell-based or functional assay; remark: listed apart in the source

T1 sequence (O35129 whole entry): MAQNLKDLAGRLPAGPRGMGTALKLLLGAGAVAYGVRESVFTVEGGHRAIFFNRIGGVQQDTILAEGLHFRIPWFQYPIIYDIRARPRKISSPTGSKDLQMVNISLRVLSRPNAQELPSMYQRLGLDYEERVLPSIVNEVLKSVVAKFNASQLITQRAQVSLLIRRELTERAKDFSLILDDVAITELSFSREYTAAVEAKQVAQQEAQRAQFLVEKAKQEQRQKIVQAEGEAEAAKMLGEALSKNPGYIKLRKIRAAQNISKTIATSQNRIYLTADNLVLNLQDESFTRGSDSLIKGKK

Binder	Reporter Ratio (A5T4 reporter line, IL-4 induced germline epsilon transcription) [1]	endogenous epsilon inhibition ratio (TAQMAN quantitative PCR, +IL-4/+Dox to +IL-4/-Dox) [2]
TGVHVELQINRSIMHYISSP [peptide CL08wt]	1.39	2.15
TGVHVELQIAASIMHYISSP [peptide CL08NR]	1.6	
TGAAVELQINRSIMHYISSP [peptide CL08VH]	1.17	

Source: patent US20040014649A1 (RIGEL PHARMACEUTICALS, published 2004)
